Data taken from PMC5397363 (Molecular microbiology, 2017).
Numbering of substitutions follows the chain as printed. Square brackets hold non-standard residues; d marks the D form. Ends that are not written are not given here. 2Abz = Nc1ccccc1C(=O)O

Legend:
Experiment in all cases: fluorescence polarisation
[1] = biological target: Staphylococcus aureus Prp C34S (S. aureus, UniProt Q2FXS9 1-106, C34S)
[2] = biological target: T1, Staphylococcus aureus Prp H22A (S. aureus, UniProt Q2FXS9 1-106, H22A)
T1 sequence: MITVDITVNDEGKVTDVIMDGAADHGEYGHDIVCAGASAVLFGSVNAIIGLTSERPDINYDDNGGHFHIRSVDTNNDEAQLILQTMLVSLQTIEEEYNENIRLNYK

[3] = biological target: T2, Staphylococcus aureus Prp S38A (S. aureus, UniProt Q2FXS9 1-106, S38A)
T2 sequence: T1 sequence with A22H, S38A

Measured: binding result

B1: 2-Abz-KLNLQFFASKK-Am, fluorescent L27 cleavage-motif peptide without quencher (peptide)
peptide: [2Abz]KLNLQFFASKK-NH2
modifications: N-terminus assumed
SMILES: CC(C)C[C@H](NC(=O)[C@H](CCCCN)NC(=O)c1ccccc1N)C(=O)N[C@@H](CC(N)=O)C(=O)N[C@@H](CC(C)C)C(=O)N[C@@H](CCC(N)=O)C(=O)N[C@@H](Cc1ccccc1)C(=O)N[C@@H](Cc1ccccc1)C(=O)N[C@@H](C)C(=O)N[C@@H](CO)C(=O)N[C@@H](CCCCN)C(=O)N[C@@H](CCCCN)C(N)=O
binds: [1] | [2] | [3]
